# Source: paper PMC6054568
# Key:
# [1] = biological target: ErbB2 V635G CCH-10 (UniProt P04626); test: bipartite tetracysteine display
# [2] = biological target: ErbB2 CCH-10 (UniProt P04626); test: bipartite tetracysteine display
fold increase in ReAsH fluorescence (no growth factor) [1] [fold],fold increase in ReAsH fluorescence (no growth factor) [2] [fold],Substance
1.7,–,ErbB2 V635G CCH-10 (from UniProt P04626 23-1255) (receptor)
–,1.8,ErbB2 CCH-10 (from UniProt P04626 23-1255) (receptor)
